Measured values as given in the supplement of paper PMC11780869.

Tested on: Bacillus subtilis
Assay: cleaved RNA product abundance (RNA/gDNA barcode ratio) relative to median wild-type variant (ratio to wild type); higher = more accumulation of the downstream cleavage product
How it was run: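 Reporter mRNAs (truncated aprE or tetM) carrying barcoded, mutagenized RNase Y cleavage-site windows were made from oligos with a 9% error rate and integrated into the B. subtilis chromosome. Cultures grew in LB at 37°C from OD600 0.0003 to 0.3. Cleaved RNA was gel-selected, reverse transcribed and barcode-sequenced alongside genomic DNA barcodes, with UMI collapsing. Cleaved product abundance is the RNA:gDNA barcode ratio per variant, scaled to the median wild-type variant.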

[1] = experiment (reporter, strain, medium): exp 2b: truncated aprE reporter, strain BJT200, cleavage site: cggR-gapA (positions -7 to +36 mutated)
[2] = experiment (reporter, strain, medium): exp 4a: truncated aprE reporter, strain BJT201 with 2% xylose (RNase J1 expressed), cleavage site: cggR-gapA (positions -7 to +36 mutated)
[3] = experiment (reporter, strain, medium): exp 8a: truncated aprE reporter, strain BJT201 with 2% xylose (RNase J1 expressed), cleavage site: glnRA (positions -5 to +31 mutated)

ACAGACGAAGGAGCCGCAAAGAATTTATTATGGGATGAATAATCCCTCAATATAAATATCTCTCACTTATTTAAA
cleaved RNA product abundance [1]: 0.266
cleaved RNA product abundance [2]: 0.292

ACAGACGAAGGAGCCGCACAGAAGTTATTAAGGGAAGAATAATCCCTCAATATAAATATCTCTCACTTATTTAAA
cleaved RNA product abundance [1]: 0.452
cleaved RNA product abundance [2]: 0.573

CGACATGTCCCGCTTCTTTCATTAATCCGTTAGCAACTGTTTTACTATATATATTTACCTTTTAAGAGGAGGAAT
cleaved RNA product abundance [3]: 0.708

ACAGACGAAGGAGCCGCAAATAAGTTATTAAGGGATCAATAATCCCTCAATATAAATATCTCTCACTTATTTAAA
cleaved RNA product abundance [2]: 0.721
cleaved RNA product abundance (experiment (reporter, strain, medium): exp 6: tetM reporter, strain 168, cleavage site: cggR-gapA (positions -7 to +36 mutated)): 0.865

ACAGACGAAGGAGCCGCGAAGAAGTTATTAAGGGATCAATAATCCCTCAATATAAATATCTCTCACTTATTTAAA
cleaved RNA product abundance [2]: 0.762

ACAGACGAAGGAGCCGCAAAGAACTTATTCAGGGATGAATAATCCCTCAATATAAATATCTCTCACTTATTTAAA
cleaved RNA product abundance [2]: 0.525

ACAGACGAAGGAGCCGCAAAGAAGTTATTAAGAGATGAATAATCCCTCAATATAAATAGCTCTCACTTATTTAAA
cleaved RNA product abundance [2]: 0.106

ACAGACGAAGGAGCCGCAAAGAAGTTATTAAGCGATGTATAATCCCTCAATATAAATATCTCTCACTTATTTAAA
cleaved RNA product abundance [2]: 0.08

CGACATGTCCCGCTTCTTTCATTAATACGTTCGCAACTGTTTTGCTATATACATTTACCTTTTAAGAGGAGGAAT
cleaved RNA product abundance [3]: 0.216

ACAGACGAAGGAGCCGCAAATAAATTATTAAGGGATGAATAATCCCCCAATATAAATATCTCTCACTTATTTAAA
cleaved RNA product abundance [2]: 0.381

ACAGACGAAGGAGCCGCAAAGAACTTATTAAGGGATGAATAATCCCACAATATAAATATCTCTCACTTATTTAAA
cleaved RNA product abundance [1]: 0.207
cleaved RNA product abundance [2]: 0.292

CGACATGTCCCGCTTCTTTCATTAATACGTTAGCAACTGTTTTGCTATTTACATTTACCTTTTAAGAGGAGGAAT
cleaved RNA product abundance [3]: 0.232

ACAGACGAAGGAGCCGCAAAGAAGTTATTAAGGAAAGAATAATCCCTCAATATAAATATCTCTCACTTATTTAAA
cleaved RNA product abundance [2]: 0.0978

ACAGACGAAGGAGCCGCGAATAAGTTATTAAGGGATGAATAATCCCTCAATATAAATATCTCTCACTTATTTAAA
cleaved RNA product abundance [1]: 1.19
cleaved RNA product abundance [2]: 1.47

CGACATGTCCCGCTTCTTTCATTAATCCTATAGCAACTGTTTTGCTATATACATTTACCTTTTAAGAGGAGGAAT
cleaved RNA product abundance [3]: 0.458

ACAGACGAAGGAGCCGCAAAGTAGTTATTAAGGGATGAATAATCCCTCAATATATATATCTCTCACTTATTTAAA
cleaved RNA product abundance [2]: 0.884

ACAGACGAAGGAGCCGCAAATAAGTTATTAAGGGATGAATAATCCCTCAATATAAATGTCTCTCACTTATTTAAA
cleaved RNA product abundance [2]: 0.45

CGACATGTCCCGCTTCTTTCATTACTCCGTTAGCAACTGCTTTGCTATATACATTTACCTTTTAAGAGGAGGAAT
cleaved RNA product abundance [3]: 0.597

ACAGACGAAGGAGCCGCAAAGAAGTTATAAAGGGATGAAAAATCCCTCAATATAAATATCTCTCACTTATTTAAA
cleaved RNA product abundance [2]: 0.4

ACAGACGAAGGAGCCGCAAAGAAGTTATTAAGGGATAAATCATCCCTCAATATAAATATCTCTCACTTATTTAAA
cleaved RNA product abundance [2]: 0.818

ACAGACGAAGGAGCCGCAAAGAAGATATTAAGGGATGAATAATCCCTCAATAAAAATATCTCTCACTTATTTAAA
cleaved RNA product abundance [1]: 0.142

CGACATGTCCCGCTTCTTTCATTAATCCGTTAGCAACTGTATTGCTATATACATTTATCTTTTAAGAGGAGGAAT
cleaved RNA product abundance [3]: 1.07

CGACATGTCCCGCTTCTTTCATTAAACCGTTAGCAACTGTTTTGCGATATACATTTACCTTTTAAGAGGAGGAAT
cleaved RNA product abundance [3]: 0.352

ACAGACGAAGGAGCCGCAAAGAAGTTATTAAGGGATGAATAATCTCTCAACATAAATATCTCTCACTTATTTAAA
cleaved RNA product abundance [2]: 0.156

CGACATGTCCCGCTTCTTTCATTAACCCGTTAGTAACTGTTTTGCTATATACATTTACCTTTTAAGAGGAGGAAT
cleaved RNA product abundance [3]: 0.255

ACAGACGAAGGAGCCGCAAAGAAGTGATTAAGGCATGAATAATCCCTCAATATAAATATCTCTCACTTATTTAAA
cleaved RNA product abundance [1]: 0.11

ACAGACGAAGGAGCCGCAAAGAAGTTATTAAGGGATGAACAATCCCTCGATATAAATATCTCTCACTTATTTAAA
cleaved RNA product abundance [2]: 0.554

ACAGACGAAGGAGCCGCACATAAGTTATTAAGGGATGAATAATCCCTCAATATAAATATCTCTCACTTATTTAAA
cleaved RNA product abundance [1]: 0.732
cleaved RNA product abundance [2]: 1.07

CGACATGTCCCGCTTCTTTCATTAATCGGTTATCAACTGTTTTGCTATATACATTTACCTTTTAAGAGGAGGAAT
cleaved RNA product abundance [3]: 0.206

ACAGACGAAGGAGCCGCAACGAAGTTATTAAGGGATGAATAAACCCTCAATATAAATATCTCTCACTTATTTAAA
cleaved RNA product abundance [2]: 0.538

ACAGACGAAGGAGCCGCAAAGAACATATTAAGGGATGAATAATCCCTCAATATAAATATCTCTCACTTATTTAAA
cleaved RNA product abundance [1]: 0.607
cleaved RNA product abundance [2]: 0.499

ACAGACGAAGGAGCCGCAAAGATGTTAATAAGGGATGAATAATCCCTCAATATAAATATCTCTCACTTATTTAAA
cleaved RNA product abundance [1]: 0.237
cleaved RNA product abundance [2]: 0.311

ACAGACGAAGGAGCCGCAAAGAAGTTATTAAGGGATGAATAATCCTTCAATATGAATATCTCTCACTTATTTAAA
cleaved RNA product abundance [2]: 0.18

ACAGACGAAGGAGCCGCAAAGAAGTTATTAAGCGATGAATAATCCCTCAATATAAAAATCTCTCACTTATTTAAA
cleaved RNA product abundance [1]: 0.111
cleaved RNA product abundance [2]: 0.111

ACAGACGAAGGAGCCGCAAAGAAGTTATTAAGGGATAAATAAACCCTCAATATAAATATCTCTCACTTATTTAAA
cleaved RNA product abundance [2]: 0.445

ACAGACGAAGGAGCCGCAAAGAAGTTATTAAGGGATGAATAATCCTTCAATGTAAATATCTCTCACTTATTTAAA
cleaved RNA product abundance [2]: 0.167

ACAGACGAAGGAGCCGCACAGAAGTTATTTAGGGATGAATAATCCCTCAATATAAATATCTCTCACTTATTTAAA
cleaved RNA product abundance [2]: 0.843

CGACATGTCCCGCTTCTTTCATTAATCCGTTATCAACTGTTTTGCTATATACATTTACCATTTAAGAGGAGGAAT
cleaved RNA product abundance [3]: 0.269

ACAGACGAAGGAGCCGCAAAAAAGTTAGTAAGGGATGAATAATCCCTCAATATAAATATCTCTCACTTATTTAAA
cleaved RNA product abundance [2]: 0.374

ACAGACGAAGGAGCCGCAAACAAGTTATTATGGGATGAATAATCCCTCAATATAAATATCTCTCACTTATTTAAA
cleaved RNA product abundance [2]: 0.213

ACAGACGAAGGAGCCGCAAAGAAGTTATTAAGGGATGACTACTCCCTCAATATAAATATCTCTCACTTATTTAAA
cleaved RNA product abundance [2]: 0.446

CGACATGTCCCGCTTCTTTCATTAATCCGTTAGCAAGTGTTATGCTATATACATTTACCTTTTAAGAGGAGGAAT
cleaved RNA product abundance [3]: 0.19

ACAGACGAAGGAGCCGCAAAGACGTTATTAAGGGATGATTAATCCCTCAATATAAATATCTCTCACTTATTTAAA
cleaved RNA product abundance [2]: 0.779

CGACATGTCCCGCTTCTTTCATTAATCCGTTATCAACTGTTTTGCTAAATACATTTACCTTTTAAGAGGAGGAAT
cleaved RNA product abundance [3]: 0.237

CGACATGTCCCGCTTCTTTCATTAATCCATTAGCAGCTGTTTTGCTATATACATTTACCTTTTAAGAGGAGGAAT
cleaved RNA product abundance [3]: 0.324

ACAGACGAAGGAGCCGCAAAGAAATGATTAAGGGATGAATAATCCCTCAATATAAATATCTCTCACTTATTTAAA
cleaved RNA product abundance [1]: 0.354
cleaved RNA product abundance [2]: 0.457

CGACATGTCCCGCTTCTTTCATTAATCCGATAGAAACTGTTTTGCTATATACATTTACCTTTTAAGAGGAGGAAT
cleaved RNA product abundance [3]: 0.302

CGACATGTCCCGCTTCTTTCATTAATCCGATAGCAACTGTTTAGCTATATACATTTACCTTTTAAGAGGAGGAAT
cleaved RNA product abundance [3]: 0.822

ACAGACGAAGGAGCCGCAAAGAAGTTATTAAGGGATTAATAACCCCTCAATATAAATATCTCTCACTTATTTAAA
cleaved RNA product abundance [1]: 0.749
cleaved RNA product abundance [2]: 0.72

ACAGACGAAGGAGCCGCAGAGAAGTTATCAAGGGATGAATAATCCCTCAATATAAATATCTCTCACTTATTTAAA
cleaved RNA product abundance [2]: 0.328

ACAGACGAAGGAGCCGCAAAGAAGTTATTAAGGGATGAATAATCCCTTCAATATAAATATCTCTCACTTATTTAA
cleaved RNA product abundance [2]: 0.904

ACAGACGAAGGAGCCGCAAAGAAGTTATTAAGGGATGAATAATTCCTCAACATAAATATCTCTCACTTATTTAAA
cleaved RNA product abundance [1]: 0.134
cleaved RNA product abundance [2]: 0.183

ACAGACGAAGGAGCCGCAAAGAAGTTATTAAGAGATGAATAATCCCTCAATATAGATATCTCTCACTTATTTAAA
cleaved RNA product abundance [2]: 0.147

CGACATGTCCCGCTTCTTTCATTATTCCGTTAGCAACTGTTTTGCTATATACATTTACCCTTTAAGAGGAGGAAT
cleaved RNA product abundance [3]: 0.558

ACAGACGAAGGAGCCGCAAAGAAGGTATTAAGGGATGAATAATCCCTGAATATAAATATCTCTCACTTATTTAAA
cleaved RNA product abundance [2]: 1.45

CGACATGTCCCGCTTCTTTCATTAATCCGTTAGCAACTGTTTTGCTATATACATTAACTTTTTAAGAGGAGGAAT
cleaved RNA product abundance [3]: 1.71

CGACATGTCCCGCTTCTTTCATTAAACCGTTAGCAACTGTTTTGCTATATACATATACCTTTTAAGAGGAGGAAT
cleaved RNA product abundance [3]: 0.825

ACAGACGAAGGAGCCGCAAAGAAGTTATTAAGGGATGAATAATCCCTCAATAGAAATACCTCTCACTTATTTAAA
cleaved RNA product abundance [2]: 0.0433

ACAGACGAAGGAGCCGCAAAGAAGTTATTAAGGGATGAATAATCCCTCCATATAAATTTCTCTCACTTATTTAAA
cleaved RNA product abundance [2]: 0.23

ACAGACGAAGGAGCCGCAAAGAAGTTAATAAGGGATGAATAATCCCTCAAAATAAATATCTCTCACTTATTTAAA
cleaved RNA product abundance [2]: 0.25

ACAGACGAAGGAGCCGCAAAGAAGTTATTAAAGGATGAATAGTCCCTCAATATAAATATCTCTCACTTATTTAAA
cleaved RNA product abundance [1]: 0.124
